In the supplement of paper PMC10065799, “High-throughput profiling of sequence recognition by tyrosine kinases and SH2 domains using bacterial peptide display” (eLife, 2023):

How the values were obtained:
EPHB1 = EPHB1 (UniProt P54762); assay: phosphorylation enrichment, bacterial display (enrichment ratio); higher = better substrate or ligand; peptides without Tyr show the background
c-Abl (mouse) = assay: as above
Jak2 = Jak2 (UniProt O60674); assay: as above
FGFR3 = FGFR3 (UniProt P22607); assay: as above
Sequence of FGFR3 (P22607 whole entry, looked up): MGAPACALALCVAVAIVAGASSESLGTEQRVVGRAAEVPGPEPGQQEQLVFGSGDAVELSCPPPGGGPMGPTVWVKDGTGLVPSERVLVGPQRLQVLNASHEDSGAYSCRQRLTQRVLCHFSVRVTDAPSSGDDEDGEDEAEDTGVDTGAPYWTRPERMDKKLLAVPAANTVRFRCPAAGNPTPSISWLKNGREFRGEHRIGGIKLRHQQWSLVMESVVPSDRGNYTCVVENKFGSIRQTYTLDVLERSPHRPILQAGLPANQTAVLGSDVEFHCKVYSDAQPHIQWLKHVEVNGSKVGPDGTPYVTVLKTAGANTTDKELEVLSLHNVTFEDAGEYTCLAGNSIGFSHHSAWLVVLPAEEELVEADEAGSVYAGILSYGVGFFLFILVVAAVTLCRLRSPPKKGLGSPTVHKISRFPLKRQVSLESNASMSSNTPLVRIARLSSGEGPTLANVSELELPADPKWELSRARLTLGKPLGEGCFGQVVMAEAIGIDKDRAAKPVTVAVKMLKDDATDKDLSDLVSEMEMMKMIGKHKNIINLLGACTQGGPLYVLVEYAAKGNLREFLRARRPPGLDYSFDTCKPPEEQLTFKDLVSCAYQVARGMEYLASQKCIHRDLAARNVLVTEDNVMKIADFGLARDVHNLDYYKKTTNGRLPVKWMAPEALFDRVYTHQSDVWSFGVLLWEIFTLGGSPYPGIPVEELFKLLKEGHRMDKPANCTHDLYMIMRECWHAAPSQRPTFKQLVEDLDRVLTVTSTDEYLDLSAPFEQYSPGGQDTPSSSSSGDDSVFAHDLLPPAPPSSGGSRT

MERTK = MERTK (UniProt Q12866); assay: as above
FGFR1 = FGFR1 (UniProt P11362); assay: as above
Hck = Hck (UniProt P08631); assay: as above
Sequence of Hck (P08631 whole entry, looked up): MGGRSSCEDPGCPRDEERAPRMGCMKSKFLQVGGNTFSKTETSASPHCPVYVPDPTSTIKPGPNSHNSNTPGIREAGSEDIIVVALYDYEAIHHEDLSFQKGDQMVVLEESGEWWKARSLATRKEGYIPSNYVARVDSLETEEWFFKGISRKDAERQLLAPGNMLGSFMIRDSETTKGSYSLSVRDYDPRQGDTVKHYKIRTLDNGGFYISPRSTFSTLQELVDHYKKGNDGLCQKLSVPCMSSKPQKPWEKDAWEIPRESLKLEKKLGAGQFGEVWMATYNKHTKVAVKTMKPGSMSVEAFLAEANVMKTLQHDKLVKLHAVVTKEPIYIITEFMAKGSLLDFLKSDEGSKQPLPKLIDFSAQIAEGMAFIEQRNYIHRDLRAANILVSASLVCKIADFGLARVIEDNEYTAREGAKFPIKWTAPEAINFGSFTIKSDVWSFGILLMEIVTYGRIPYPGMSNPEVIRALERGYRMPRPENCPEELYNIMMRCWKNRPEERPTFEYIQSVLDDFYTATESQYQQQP

AncSZ = assay: as above
Fyn = Fyn (UniProt P06241); assay: as above
Sequence of Fyn (P06241 whole entry, looked up): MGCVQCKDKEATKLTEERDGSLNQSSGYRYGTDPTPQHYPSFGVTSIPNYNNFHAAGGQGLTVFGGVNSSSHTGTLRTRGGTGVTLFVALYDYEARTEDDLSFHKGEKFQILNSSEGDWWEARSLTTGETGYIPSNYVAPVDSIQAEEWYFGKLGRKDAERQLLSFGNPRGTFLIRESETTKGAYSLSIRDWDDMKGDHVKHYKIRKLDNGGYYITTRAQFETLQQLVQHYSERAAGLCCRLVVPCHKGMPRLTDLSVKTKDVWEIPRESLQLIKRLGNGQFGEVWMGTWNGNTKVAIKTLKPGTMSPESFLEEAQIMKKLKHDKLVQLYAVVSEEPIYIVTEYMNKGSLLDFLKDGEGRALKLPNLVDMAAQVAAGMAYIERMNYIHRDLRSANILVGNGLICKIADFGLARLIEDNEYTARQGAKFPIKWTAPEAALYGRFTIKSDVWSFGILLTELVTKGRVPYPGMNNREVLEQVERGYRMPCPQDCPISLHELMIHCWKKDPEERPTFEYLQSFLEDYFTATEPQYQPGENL

EPHB2 = EPHB2 (UniProt P29323); assay: as above
Sequence of EPHB2 (P29323 whole entry, looked up): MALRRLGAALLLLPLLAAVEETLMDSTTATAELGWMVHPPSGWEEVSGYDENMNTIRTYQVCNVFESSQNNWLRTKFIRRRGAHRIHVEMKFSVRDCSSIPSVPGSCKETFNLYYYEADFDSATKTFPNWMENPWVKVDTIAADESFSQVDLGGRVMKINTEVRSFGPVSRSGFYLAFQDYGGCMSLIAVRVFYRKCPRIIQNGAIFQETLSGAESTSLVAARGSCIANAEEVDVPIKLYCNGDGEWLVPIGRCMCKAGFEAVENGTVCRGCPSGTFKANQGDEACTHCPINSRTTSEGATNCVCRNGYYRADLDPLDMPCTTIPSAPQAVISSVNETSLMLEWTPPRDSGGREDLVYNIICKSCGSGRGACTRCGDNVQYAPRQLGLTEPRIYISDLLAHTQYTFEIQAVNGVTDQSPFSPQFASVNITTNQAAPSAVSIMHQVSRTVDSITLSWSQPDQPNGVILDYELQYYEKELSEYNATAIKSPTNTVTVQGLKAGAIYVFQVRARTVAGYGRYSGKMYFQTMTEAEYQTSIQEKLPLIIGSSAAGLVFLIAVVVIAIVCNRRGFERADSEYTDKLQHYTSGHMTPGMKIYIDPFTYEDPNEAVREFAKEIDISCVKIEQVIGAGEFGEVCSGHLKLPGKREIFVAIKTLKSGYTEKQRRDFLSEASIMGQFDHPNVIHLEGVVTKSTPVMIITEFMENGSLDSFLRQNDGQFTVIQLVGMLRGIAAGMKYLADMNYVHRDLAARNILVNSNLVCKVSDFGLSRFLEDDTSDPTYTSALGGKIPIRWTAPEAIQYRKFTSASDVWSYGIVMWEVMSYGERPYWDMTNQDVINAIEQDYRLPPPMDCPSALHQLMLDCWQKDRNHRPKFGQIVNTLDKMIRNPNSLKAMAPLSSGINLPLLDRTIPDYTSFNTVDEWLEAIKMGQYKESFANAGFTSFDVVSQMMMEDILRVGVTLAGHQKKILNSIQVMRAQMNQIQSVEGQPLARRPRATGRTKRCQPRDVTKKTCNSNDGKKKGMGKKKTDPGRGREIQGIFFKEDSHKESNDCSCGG

Fes = Fes (UniProt P07332); assay: as above
Sequence of Fes (P07332 whole entry, looked up): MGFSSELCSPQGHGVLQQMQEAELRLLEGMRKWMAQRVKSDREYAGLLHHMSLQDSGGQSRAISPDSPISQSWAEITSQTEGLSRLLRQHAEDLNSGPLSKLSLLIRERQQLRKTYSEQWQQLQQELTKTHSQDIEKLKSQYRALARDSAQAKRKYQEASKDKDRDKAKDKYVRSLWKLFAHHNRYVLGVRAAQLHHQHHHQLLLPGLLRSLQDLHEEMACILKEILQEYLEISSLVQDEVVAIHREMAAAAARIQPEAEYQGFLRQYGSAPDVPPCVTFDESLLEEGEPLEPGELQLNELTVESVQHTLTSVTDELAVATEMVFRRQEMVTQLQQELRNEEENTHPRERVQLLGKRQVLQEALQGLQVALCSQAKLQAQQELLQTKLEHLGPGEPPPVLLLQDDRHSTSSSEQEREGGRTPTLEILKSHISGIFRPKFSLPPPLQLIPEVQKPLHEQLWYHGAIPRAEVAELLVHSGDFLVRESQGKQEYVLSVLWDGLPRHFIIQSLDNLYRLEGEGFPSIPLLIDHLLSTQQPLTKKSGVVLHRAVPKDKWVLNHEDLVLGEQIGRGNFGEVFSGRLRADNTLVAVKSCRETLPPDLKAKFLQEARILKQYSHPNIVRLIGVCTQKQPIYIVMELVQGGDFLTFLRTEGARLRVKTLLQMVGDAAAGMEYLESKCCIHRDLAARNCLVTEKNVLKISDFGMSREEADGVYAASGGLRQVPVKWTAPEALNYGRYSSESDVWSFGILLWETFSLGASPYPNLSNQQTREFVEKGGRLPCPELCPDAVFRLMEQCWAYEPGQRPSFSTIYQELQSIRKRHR

c-Src = assay: as above
Fer (mouse) = assay: as above
SHP2-C SH2 = assay: SH2 binding enrichment of the phosphorylated peptide, bacterial display (enrichment ratio); higher = better substrate or ligand; peptides without Tyr show the background
c-Src SH2 = assay: as above
Grb2 SH2 = Grb2 SH2 (UniProt P62993); assay: as above
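Wherever SH2 binding enrichment of the phosphorylated peptide, bacterial display is given: peptide library displayed on the E. coli surface as eCPX fusions, selected cells deep-sequenced, score is each peptide's frequency after selection divided by its frequency in the input.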
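Wherever phosphorylation enrichment, bacterial display is given: 11-residue human phosphosite peptides and single-mutation variants displayed on the E. coli surface, counted by deep sequencing, each peptide's frequency after selection divided by its frequency in the unselected input library; frequency after pTyr selection over input frequency; kinase dosed for 20-30% of maximal phosphorylation in three min.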

Sequence of Jak2 (O60674 whole entry, looked up): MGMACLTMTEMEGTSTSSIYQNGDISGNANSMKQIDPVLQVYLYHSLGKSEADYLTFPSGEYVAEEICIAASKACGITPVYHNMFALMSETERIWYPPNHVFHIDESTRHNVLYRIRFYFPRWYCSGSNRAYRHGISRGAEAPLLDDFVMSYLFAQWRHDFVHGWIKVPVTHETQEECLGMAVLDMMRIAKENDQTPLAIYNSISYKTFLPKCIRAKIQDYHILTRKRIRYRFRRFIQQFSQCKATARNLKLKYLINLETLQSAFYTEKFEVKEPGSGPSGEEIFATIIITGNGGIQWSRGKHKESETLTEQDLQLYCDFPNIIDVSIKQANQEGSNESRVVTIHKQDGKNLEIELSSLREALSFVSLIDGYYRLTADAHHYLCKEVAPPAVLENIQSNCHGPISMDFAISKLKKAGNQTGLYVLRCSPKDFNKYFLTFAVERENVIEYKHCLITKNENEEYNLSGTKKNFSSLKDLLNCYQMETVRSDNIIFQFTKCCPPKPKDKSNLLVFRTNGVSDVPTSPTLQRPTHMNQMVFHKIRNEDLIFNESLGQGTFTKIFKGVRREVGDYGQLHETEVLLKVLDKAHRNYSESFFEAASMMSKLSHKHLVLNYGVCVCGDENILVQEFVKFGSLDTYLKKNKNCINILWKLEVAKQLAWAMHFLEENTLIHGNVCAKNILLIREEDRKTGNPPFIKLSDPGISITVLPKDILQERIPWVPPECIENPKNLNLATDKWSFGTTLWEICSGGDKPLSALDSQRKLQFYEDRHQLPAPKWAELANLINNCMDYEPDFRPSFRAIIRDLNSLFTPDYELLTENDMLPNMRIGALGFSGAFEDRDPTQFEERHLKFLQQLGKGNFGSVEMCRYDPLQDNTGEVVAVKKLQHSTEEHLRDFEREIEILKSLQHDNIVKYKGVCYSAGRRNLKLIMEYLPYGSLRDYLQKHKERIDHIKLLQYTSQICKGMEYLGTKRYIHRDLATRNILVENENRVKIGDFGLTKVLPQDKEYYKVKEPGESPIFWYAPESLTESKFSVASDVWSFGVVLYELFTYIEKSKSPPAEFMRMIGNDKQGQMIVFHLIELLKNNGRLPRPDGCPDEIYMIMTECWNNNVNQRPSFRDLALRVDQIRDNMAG

Row | Sequence | phosphorylation enrichment (EPHB1) | phosphorylation enrichment (c-Abl (mouse)) | phosphorylation enrichment (Jak2) | phosphorylation enrichment (FGFR3) | phosphorylation enrichment (MERTK) | phosphorylation enrichment (FGFR1) | phosphorylation enrichment (Hck) | phosphorylation enrichment (AncSZ) | phosphorylation enrichment (Fyn) | phosphorylation enrichment (EPHB2) | phosphorylation enrichment (Fes) | phosphorylation enrichment (c-Src) | phosphorylation enrichment (Fer (mouse)) | SH2 binding enrichment (SHP2-C SH2) | SH2 binding enrichment (c-Src SH2) | SH2 binding enrichment (Grb2 SH2)
1 | YGLQAYTKVKT [ALDH2_Y502_E504K] | 0.445 | 0.614 | 1.23 | 0.679 | 0.414 | 0.45 | 0.377 | 1.26 | 0.357 | 0.462 | 1.08 | 0.435 | 0.427 | 2.67 | 1.85 | 0.811
2 | AFLEDYFTSTK [SRC_Y522_E527K] | 0.378 | 0.591 | 1.26 | 0.774 | 0.504 | 0.639 | 0.52 | 1.1 | 0.474 | 0.492 | 0.97 | 0.463 | 0.356 | 1.07 | 0.553 | 0.947
3 | GSPAPYRRRKR [MBD1_Y403_P401A] | 0.466 | 0.497 | 0.632 | 0.426 | 0.608 | 0.596 | 0.498 | 0.617 | 0.502 | 0.499 | 0.545 | 0.618 | 0.505 | 0.413 | 0.42 | 0.594
4 | EKLQKYFRQNP [EHHADH_Y682_YF] | 0.375 | 0.942 | 0.549 | 0.472 | 0.354 | 0.358 | 0.351 | 0.802 | 0.431 | 0.35 | 0.742 | 0.408 | 0.365 | 0.761 | 0.355 | 0.871
5 | YDEYRYRSVIK [CFTR_Y517] | 0.584 | 1.05 | 1.16 | 0.67 | 0.706 | 0.435 | 1.14 | 1.04 | 1.76 | 0.589 | 0.973 | 2.15 | 0.529 | 0.606 | 1.25 | 0.788
6 | VTSLKYSTPPY [BRIP1_Y916_S919P] | 0.355 | 0.483 | 0.565 | 0.515 | 0.387 | 0.358 | 0.396 | 0.625 | 0.366 | 0.344 | 0.681 | 0.389 | 0.352 | 1.31 | 0.434 | 0.955
7 | RAIELYNDKEK [OTULIN_Y244] | 0.73 | 0.845 | 1.69 | 0.924 | 0.54 | 0.923 | 1.08 | 1.52 | 0.558 | 0.821 | 1.51 | 0.747 | 0.657 | 0.746 | 0.467 | 0.735
8 | LNAGAYSKVVE [PPT1_Y172_Q177E] | 0.431 | 0.46 | 0.541 | 0.378 | 0.448 | 0.436 | 0.411 | 0.447 | 0.306 | 0.416 | 0.664 | 0.523 | 0.551 | 1.08 | 2.03 | 0.758
9 | VRSVDYVLFRS [FAM189B_Y361] | 0.825 | 0.516 | 0.583 | 1.4 | 0.44 | 2.09 | 0.528 | 1.06 | 0.455 | 0.534 | 0.831 | 0.403 | 0.544 | 1.12 | 0.648 | 1.13
10 | YCRHNYGVVES [HLA-DRB1_Y112] | 1.52 | 0.675 | 0.681 | 0.527 | 0.592 | 0.568 | 0.458 | 0.557 | 0.385 | 2.87 | 0.798 | 0.484 | 0.41 | 0.927 | 1.64 | 1.2
11 | TKGMIYGGGGG [PSME1_Y249] | 0.339 | 0.613 | 0.501 | 0.377 | 0.433 | 0.457 | 0.556 | 0.494 | 0.49 | 0.416 | 0.505 | 0.535 | 0.431 | 0.812 | 0.483 | 1.05
12 | DAGTDYVGISC [FREM2_Y2061_R2066C] | 0.578 | 0.688 | 0.732 | 0.959 | 0.4 | 1.05 | 0.478 | 1.31 | 0.522 | 0.619 | 0.961 | 0.546 | 0.558 | 0.898 | 0.658 | 0.991
13 | FETSHYLASPD [CTNND2_Y1217_P1218L_YF] | 0.878 | 0.658 | 0.73 | 0.752 | 0.664 | 0.568 | 0.513 | 0.791 | 0.557 | 0.635 | 0.824 | 0.523 | 0.502 | 0.904 | 0.473 | 0.923
14 | EEGNPYFSGAR [MCCC2_Y520_S523G_YF] | 0.516 | 0.687 | 0.802 | 0.686 | 0.444 | 0.521 | 0.864 | 0.938 | 0.637 | 0.462 | 0.945 | 1.37 | 0.347 | 0.667 | 0.536 | 0.868
15 | LFMGDYVDRGF [PPP2CA_Y86_YF] | 0.961 | 0.616 | 0.696 | 0.943 | 0.396 | 0.822 | 0.673 | 0.95 | 0.814 | 1.19 | 0.963 | 0.61 | 0.546 | 0.577 | 0.54 | 1.04
16 | CQASLYPSNHD [LRIG1_Y996_G993A] | 0.721 | 0.798 | 1.01 | 0.792 | 0.42 | 0.577 | 0.595 | 1.08 | 0.571 | 0.624 | 1.3 | 0.449 | 0.524 | 0.694 | 0.475 | 0.781
17 | CTTIHYTYMCN [TP53_Y234_N235T] | 0.608 | 0.672 | 1.04 | 0.704 | 0.517 | 0.724 | 0.524 | 1.08 | 0.496 | 0.761 | 1.07 | 0.549 | 0.591 | 6.45 | 4.85 | 1.52

Row | Sequence | phosphorylation enrichment (EPHB1) | phosphorylation enrichment (c-Abl (mouse)) | phosphorylation enrichment (Jak2) | phosphorylation enrichment (FGFR3) | phosphorylation enrichment (MERTK) | phosphorylation enrichment (FGFR1) | phosphorylation enrichment (Hck) | phosphorylation enrichment (AncSZ) | phosphorylation enrichment (Fyn) | phosphorylation enrichment (EPHB2) | phosphorylation enrichment (Fes) | phosphorylation enrichment (c-Src) | phosphorylation enrichment (Fer (mouse)) | SH2 binding enrichment (SHP2-C SH2) | SH2 binding enrichment (c-Src SH2) | SH2 binding enrichment (Grb2 SH2)
18 | TRSFKYLLLSM [NF1_Y491_YF] | 0.663 | 0.706 | 0.977 | 0.548 | 0.399 | 0.43 | 0.44 | 1.12 | 0.386 | 0.51 | 1.07 | 0.426 | 0.38 | 1.21 | 1.05 | 1.05
19 | ESDFPYSSSFE [SRPK2_Y427_T426P_YF] | 0.437 | 0.642 | 0.942 | 0.692 | 0.462 | 0.619 | 0.47 | 1.1 | 0.511 | 0.502 | 1.1 | 0.823 | 0.531 | 0.543 | 0.485 | 0.738
20 | LSDGPYSNSFE [EPOR_Y485_P488S_YF] | 0.982 | 1.2 | 1.18 | 0.976 | 0.858 | 1.07 | 0.915 | 1.49 | 1.23 | 1.11 | 1.65 | 0.83 | 1.36 | 0.525 | 1.22 | 1
21 | KDKLPYLYDDP [GPX2_Y125_P126L] | 0.947 | 0.547 | 0.857 | 0.624 | 0.461 | 0.5 | 0.537 | 1.17 | 0.522 | 0.765 | 0.983 | 0.455 | 0.77 | 0.682 | 1.04 | 0.871
22 | LLLLFYVVRYC [MPZ_Y177] | 0.359 | 0.574 | 0.735 | 0.436 | 0.54 | 0.415 | 0.438 | 0.722 | 0.463 | 0.345 | 0.738 | 0.492 | 0.468 | 1.53 | 1.33 | 1.77
23 | LSVEIHDRREY [ITGB7_Y753_Y753H] | 0.55 | 0.823 | 1.12 | 0.633 | 0.336 | 0.414 | 0.463 | 1.09 | 0.336 | 0.54 | 1.08 | 0.438 | 0.473 | 0.473 | 0.429 | 0.733
24 | HGDSAYHSQRH [ERBB3_Y1132_R1127H] | 0.63 | 1.32 | 1.03 | 0.425 | 0.789 | 0.808 | 0.648 | 1.2 | 0.327 | 0.479 | 1.22 | 0.824 | 0.276 | 0.896 | 0.508 | 0.996
25 | WQLEIYRASRP [ERCC4_Y594_R589W] | 0.567 | 0.997 | 0.911 | 0.702 | 0.521 | 0.375 | 0.491 | 1.27 | 0.492 | 0.628 | 1.22 | 0.45 | 0.471 | 0.546 | 0.599 | 0.717
26 | FQRLRYIKQLG [SAMHD1_Y146] | 0.483 | 0.617 | 0.652 | 0.509 | 0.472 | 0.42 | 0.454 | 0.8 | 0.399 | 0.592 | 0.898 | 0.473 | 0.42 | 0.679 | 0.479 | 0.813
27 | EREFKYGAHNF [OAT_Y50_YF] | 0.392 | 0.401 | 0.483 | 0.482 | 0.359 | 0.368 | 0.386 | 0.516 | 0.442 | 0.375 | 0.608 | 0.388 | 0.36 | 0.785 | 0.399 | 0.893
28 | SHLSAYPALEG [CD5_Y465] | 0.351 | 0.531 | 0.483 | 0.411 | 0.324 | 0.404 | 0.372 | 0.611 | 0.375 | 0.398 | 0.591 | 0.343 | 0.409 | 0.687 | 0.618 | 0.897
29 | TTIVSYRASQP [MKI67_Y1737_K1734I] | 0.454 | 0.654 | 0.6 | 0.477 | 0.438 | 0.441 | 0.481 | 0.591 | 0.481 | 0.305 | 0.663 | 0.539 | 0.457 | 0.74 | 0.532 | 0.688
30 | RFLERDIFNRE [HLA-DPB1_Y57_Y57D_YF] | 0.769 | 1.29 | 1.69 | 1.1 | 0.548 | 0.682 | 0.771 | 1.17 | 0.518 | 0.569 | 1.01 | 0.584 | 1.01 | 0.707 | 0.565 | 0.927
31 | KGSLPYNLILD [PKD1L2_Y406] | 0.468 | 0.743 | 0.687 | 0.616 | 0.421 | 0.552 | 0.44 | 0.695 | 0.438 | 0.418 | 0.713 | 0.542 | 0.488 | 0.71 | 3.69 | 0.75
32 | VDSIEYEVASQ [SLC7A7_Y7_T5I] | 0.594 | 0.821 | 1.36 | 0.729 | 0.545 | 0.451 | 0.567 | 1.22 | 0.491 | 0.618 | 1.18 | 0.466 | 0.464 | 0.741 | 0.452 | 0.793
33 | LNCDRYSVGLL [PDE6A_Y275] | 0.961 | 0.929 | 1.2 | 1.2 | 0.709 | 0.712 | 0.889 | 1.16 | 0.734 | 1.51 | 1.59 | 0.823 | 0.898 | 0.527 | 0.588 | 0.873
